# Numbered stars: 1 amine (or outer) side, 2 acyl side, 3 side chain; on linkers, the order of the positions; unused ones are H or OH. Bridge positions count the residues as written; N and C are the ends. Side chains are listed from the residue outwards. Ends that are not written are not given here. * marks the point of attachment. C20 diacid = O=C(O)CCCCCCCCCCCCCCCCCCC(=O)*; γGlu = O=C(O)[C@H](CCC(=O)[*:2])N[*:1]; AEEA = NCCOCCOCC(=O)O
# T1: human calcitonin receptor (human, UniProt P30988 25-474)
# T1 construct: whole, on cells; Assay used cell membranes of the transfected BHK cells; also called hCTR; hCT
# T1 sequence (looked up): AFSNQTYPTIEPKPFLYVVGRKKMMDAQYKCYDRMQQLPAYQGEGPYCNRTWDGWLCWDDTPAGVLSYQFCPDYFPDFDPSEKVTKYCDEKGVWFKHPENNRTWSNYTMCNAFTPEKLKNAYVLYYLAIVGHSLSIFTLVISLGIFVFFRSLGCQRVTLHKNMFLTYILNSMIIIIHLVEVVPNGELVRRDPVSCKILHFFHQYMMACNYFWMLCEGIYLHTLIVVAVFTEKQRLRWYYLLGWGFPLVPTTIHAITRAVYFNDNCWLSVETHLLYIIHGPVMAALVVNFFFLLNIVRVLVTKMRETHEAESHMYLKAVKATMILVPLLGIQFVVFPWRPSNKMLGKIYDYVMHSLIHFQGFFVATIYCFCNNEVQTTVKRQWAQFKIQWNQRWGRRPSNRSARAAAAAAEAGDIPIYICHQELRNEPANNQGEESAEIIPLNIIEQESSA
# Tests used:
# [1] = target: T1, human calcitonin receptor; experiment: ratio IC50 hCTR / IC50 hAmylin-R of the two SPA competition assays; reference: human amylin receptor
# Method: The resulting pellet was resuspended, homogenized and centrifuged (20.000 rpm, 15 min) in a buffer containing 20 mM Na-HEPES and 0.1 mM EDTA (pH 7.4, buffer 2). The resulting pellet was resuspended in buffer 2 and protein concentration was measured (BCA protein Assay, Pierce). The homogenate was kept cold during the whole procedure. The membranes were kept at −80° C. until use. The assay was performed in a 384 well Optiplate (PerkinElmer) in a total volume of 40 ul. Membranes were mixed with SPA beads. Final concentration of membranes 35 ng/μL final and SPA beads was 0.05 mg/well. Test-compounds were dissolved in DMSO and further diluted in assay buffer (50 mM Hepes, pH 7.4, 1 mM CaCl2, 5 mM MgCl₂, 0.1% OA and 0.02% Tween20). […] The final mixture was incubated with shaking at 400 rpm for 120 min at 25° C. prior to centrifugation (1500 rpm, 10 min). Samples were analyzed on TopCounter™ (Packard). The IC₅₀ was calculated using (one site binding competition analysis) GraphPad Prism5 as a measure of receptor affinity.
# Membranes were prepared in the following way; the cells were rinsed with PBS and incubated with Versene for approximately 5 min before harvesting. The cells were flushed with PBS and the cell-suspension was centrifuged for 5 min at 1000 rpm. Cells were homogenized (Ultrathurrax) in a buffer containing 20 mM Na-HEPES and 10 mM EDTA (pH 7.4) and centrifuged at 20.000 rpm for 15 min. The resulting pellet was resuspended, homogenized and centrifuged (20.000 rpm, 15 min) in a buffer containing 20 mM Na-HEPES and 0.1 mM EDTA (pH 7.4, buffer 2). The resulting pellet was resuspended in buffer 2 and protein concentration was measured (BCA protein Assay, Pierce). The homogenate was kept cold during the whole procedure. The membranes were kept at −80° C. until use. Assay was performed in a 384 well Optiplate (PerkinElmer) in a total volume of 40 ul. Membranes were mixed with SPA beads.
# [2] = target: T1, human calcitonin receptor; experiment: SPA radioligand competition (125I-calcitonin), membranes of BHK cells with human calcitonin receptor
# Procedure, shortened: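 BHK hCTR membranes 35 ng/μL + SPA beads 0.05 mg/well; buffer 50 mM Hepes pH 7.4, 1 mM CaCl2, 5 mM MgCl₂, 0.1% OA, 0.02% Tween20. 120 min, 25° C., shaking. Scintillation count; IC50 by one-site binding competition.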
Binder,Ratio hCT/hAmylin binding [1],IC50 [2] [nM]
"K([AEEA-AEEA-γGlu-C20 diacid])CNTATCATQRLANFLRHSSPNFGAIPSSTNVGSETY-NH2 (disulfide 2-7; N-terminus assumed; SMILES CC[C@H](C)[C@H](NC(=O)[C@H](C)NC(=O)CNC(=O)[C@H](Cc1ccccc1)NC(=O)[C@H](CC(N)=O)NC(=O)[C@@H]1CCCN1C(=O)[C@H](CO)NC(=O)[C@H](CO)NC(=O)[C@H](Cc1c[nH]cn1)NC(=O)[C@H](CCCNC(=N)N)NC(=O)[C@H](CC(C)C)NC(=O)[C@H](Cc1ccccc1)NC(=O)[C@H](CC(N)=O)NC(=O)[C@H](C)NC(=O)[C@H](CC(C)C)NC(=O)[C@H](CCCNC(=N)N)NC(=O)[C@H](CCC(N)=O)NC(=O)[C@@H](NC(=O)[C@H](C)NC(=O)[C@@H]1CSSC[C@H](NC(=O)[C@@H](N)CCCCNC(=O)COCCOCCNC(=O)COCCOCCNC(=O)CC[C@H](NC(=O)CCCCCCCCCCCCCCCCCCC(=O)O)C(=O)O)C(=O)N[C@@H](CC(N)=O)C(=O)N[C@@H]([C@@H](C)O)C(=O)N[C@@H](C)C(=O)N[C@@H]([C@@H](C)O)C(=O)N1)[C@@H](C)O)C(=O)N1CCC[C@H]1C(=O)N[C@@H](CO)C(=O)N[C@@H](CO)C(=O)N[C@H](C(=O)N[C@@H](CC(N)=O)C(=O)N[C@H](C(=O)NCC(=O)N[C@@H](CO)C(=O)N[C@@H](CCC(=O)O)C(=O)N[C@H](C(=O)N[C@@H](Cc1ccc(O)cc1)C(N)=O)[C@@H](C)O)C(C)C)[C@@H](C)O, Synthetic analogue; also called compound 25)",56.5,43.4
"{C20 diacid-γGlu}-KCNTATCATQRLAEFLRHSSPNFGAIPSSTNVGSETY-NH2 (disulfide 2-7; SMILES CC[C@H](C)[C@H](NC(=O)[C@H](C)NC(=O)CNC(=O)[C@H](Cc1ccccc1)NC(=O)[C@H](CC(N)=O)NC(=O)[C@@H]1CCCN1C(=O)[C@H](CO)NC(=O)[C@H](CO)NC(=O)[C@H](Cc1c[nH]cn1)NC(=O)[C@H](CCCNC(=N)N)NC(=O)[C@H](CC(C)C)NC(=O)[C@H](Cc1ccccc1)NC(=O)[C@H](CCC(=O)O)NC(=O)[C@H](C)NC(=O)[C@H](CC(C)C)NC(=O)[C@H](CCCNC(=N)N)NC(=O)[C@H](CCC(N)=O)NC(=O)[C@@H](NC(=O)[C@H](C)NC(=O)[C@@H]1CSSC[C@H](NC(=O)[C@H](CCCCN)NC(=O)CC[C@H](NC(=O)CCCCCCCCCCCCCCCCCCC(=O)O)C(=O)O)C(=O)N[C@@H](CC(N)=O)C(=O)N[C@@H]([C@@H](C)O)C(=O)N[C@@H](C)C(=O)N[C@@H]([C@@H](C)O)C(=O)N1)[C@@H](C)O)C(=O)N1CCC[C@H]1C(=O)N[C@@H](CO)C(=O)N[C@@H](CO)C(=O)N[C@H](C(=O)N[C@@H](CC(N)=O)C(=O)N[C@H](C(=O)NCC(=O)N[C@@H](CO)C(=O)N[C@@H](CCC(=O)O)C(=O)N[C@H](C(=O)N[C@@H](Cc1ccc(O)cc1)C(N)=O)[C@@H](C)O)C(C)C)[C@@H](C)O, Synthetic analogue; also called compound 22)",12.3,9.73

# Further binders by falling IC50 [2], results first:
Ratio hCT/hAmylin binding [1],IC50 [2] [nM],Binder
47.5,25.3,"K([AEEA-γGlu-C20 diacid])CNTATCATQRLANFLRHSSPNFGAIPSSTNVGSETY-NH2 (disulfide 2-7; N-terminus assumed; SMILES CC[C@H](C)[C@H](NC(=O)[C@H](C)NC(=O)CNC(=O)[C@H](Cc1ccccc1)NC(=O)[C@H](CC(N)=O)NC(=O)[C@@H]1CCCN1C(=O)[C@H](CO)NC(=O)[C@H](CO)NC(=O)[C@H](Cc1c[nH]cn1)NC(=O)[C@H](CCCNC(=N)N)NC(=O)[C@H](CC(C)C)NC(=O)[C@H](Cc1ccccc1)NC(=O)[C@H](CC(N)=O)NC(=O)[C@H](C)NC(=O)[C@H](CC(C)C)NC(=O)[C@H](CCCNC(=N)N)NC(=O)[C@H](CCC(N)=O)NC(=O)[C@@H](NC(=O)[C@H](C)NC(=O)[C@@H]1CSSC[C@H](NC(=O)[C@@H](N)CCCCNC(=O)COCCOCCNC(=O)CC[C@H](NC(=O)CCCCCCCCCCCCCCCCCCC(=O)O)C(=O)O)C(=O)N[C@@H](CC(N)=O)C(=O)N[C@@H]([C@@H](C)O)C(=O)N[C@@H](C)C(=O)N[C@@H]([C@@H](C)O)C(=O)N1)[C@@H](C)O)C(=O)N1CCC[C@H]1C(=O)N[C@@H](CO)C(=O)N[C@@H](CO)C(=O)N[C@H](C(=O)N[C@@H](CC(N)=O)C(=O)N[C@H](C(=O)NCC(=O)N[C@@H](CO)C(=O)N[C@@H](CCC(=O)O)C(=O)N[C@H](C(=O)N[C@@H](Cc1ccc(O)cc1)C(N)=O)[C@@H](C)O)C(C)C)[C@@H](C)O, Synthetic analogue; also called compound 26)"
23.6,21.6,"{C20 diacid-γGlu}-KCNTATCATQRLAHFLRHSSPNFGAIPSSTNVGSETY-NH2 (disulfide 2-7; SMILES CC[C@H](C)[C@H](NC(=O)[C@H](C)NC(=O)CNC(=O)[C@H](Cc1ccccc1)NC(=O)[C@H](CC(N)=O)NC(=O)[C@@H]1CCCN1C(=O)[C@H](CO)NC(=O)[C@H](CO)NC(=O)[C@H](Cc1c[nH]cn1)NC(=O)[C@H](CCCNC(=N)N)NC(=O)[C@H](CC(C)C)NC(=O)[C@H](Cc1ccccc1)NC(=O)[C@H](Cc1c[nH]cn1)NC(=O)[C@H](C)NC(=O)[C@H](CC(C)C)NC(=O)[C@H](CCCNC(=N)N)NC(=O)[C@H](CCC(N)=O)NC(=O)[C@@H](NC(=O)[C@H](C)NC(=O)[C@@H]1CSSC[C@H](NC(=O)[C@H](CCCCN)NC(=O)CC[C@H](NC(=O)CCCCCCCCCCCCCCCCCCC(=O)O)C(=O)O)C(=O)N[C@@H](CC(N)=O)C(=O)N[C@@H]([C@@H](C)O)C(=O)N[C@@H](C)C(=O)N[C@@H]([C@@H](C)O)C(=O)N1)[C@@H](C)O)C(=O)N1CCC[C@H]1C(=O)N[C@@H](CO)C(=O)N[C@@H](CO)C(=O)N[C@H](C(=O)N[C@@H](CC(N)=O)C(=O)N[C@H](C(=O)NCC(=O)N[C@@H](CO)C(=O)N[C@@H](CCC(=O)O)C(=O)N[C@H](C(=O)N[C@@H](Cc1ccc(O)cc1)C(N)=O)[C@@H](C)O)C(C)C)[C@@H](C)O, Synthetic analogue; also called compound 30)"
10.9,1.09,"{C20 diacid-γGlu}-KCNTATCATQRLAEFLRHSSPNFGAIPSSTNVGPNTY-NH2 (disulfide 2-7; SMILES CC[C@H](C)[C@H](NC(=O)[C@H](C)NC(=O)CNC(=O)[C@H](Cc1ccccc1)NC(=O)[C@H](CC(N)=O)NC(=O)[C@@H]1CCCN1C(=O)[C@H](CO)NC(=O)[C@H](CO)NC(=O)[C@H](Cc1c[nH]cn1)NC(=O)[C@H](CCCNC(=N)N)NC(=O)[C@H](CC(C)C)NC(=O)[C@H](Cc1ccccc1)NC(=O)[C@H](CCC(=O)O)NC(=O)[C@H](C)NC(=O)[C@H](CC(C)C)NC(=O)[C@H](CCCNC(=N)N)NC(=O)[C@H](CCC(N)=O)NC(=O)[C@@H](NC(=O)[C@H](C)NC(=O)[C@@H]1CSSC[C@H](NC(=O)[C@H](CCCCN)NC(=O)CC[C@H](NC(=O)CCCCCCCCCCCCCCCCCCC(=O)O)C(=O)O)C(=O)N[C@@H](CC(N)=O)C(=O)N[C@@H]([C@@H](C)O)C(=O)N[C@@H](C)C(=O)N[C@@H]([C@@H](C)O)C(=O)N1)[C@@H](C)O)C(=O)N1CCC[C@H]1C(=O)N[C@@H](CO)C(=O)N[C@@H](CO)C(=O)N[C@H](C(=O)N[C@@H](CC(N)=O)C(=O)N[C@H](C(=O)NCC(=O)N1CCC[C@H]1C(=O)N[C@@H](CC(N)=O)C(=O)N[C@H](C(=O)N[C@@H](Cc1ccc(O)cc1)C(N)=O)[C@@H](C)O)C(C)C)[C@@H](C)O, Synthetic analogue; also called compound 32)"

# Source: patent US20140087995A1 (published 2014)
